This note sets out measurements from patent publication US20060252130A1 (ACGT PREGENOMICS, published 2006).

B1: fluorescence-marked proline-rich peptide Cys-Ser-Gly-Pro-Pro-Pro-Pro-Pro-Pro-Pro-Pro-Leu-Pro (fluorescein-maleimide label) (peptide)
peptide: C(fluorescein‑maleimide)SGPPPPPPPPLP
notes: also called fluorescence-labeled peptide; fluorescence-marked peptide
B2: synthetic proline-rich peptide Cys-Ser-Gly-Pro-Pro-Pro-Pro-Pro-Pro-Pro-Pro-Leu-Pro (peptide)
peptide: CSGPPPPPPPPLP
notes: also called CSGP8LP; proline peptide

Test [1] deals with T1, PyVP1-WW150 (mouse polyoma virus; Mus musculus …).
T1 construct: WW domain inserted between VP1 positions 148 and 149; Soluble pentamer after intein cleavage; also called PyVP1-WW150 variant; PyVP1-WW150 protein
Kind of test: gel filtration (TSK gel G5000PWXL), co-elution of labelled peptide with capsids and pentamers, absorption at 490 nm.

Test [2] addresses T1, PyVP1-WW150. Kind of test: SPR (Biacore X), peptide on CM5 chip, 10 mM HEPES, 1 mM EDTA, 150 mM NaCl, pH 7.2, 25 C, protein 5 to 50 nM.
Test [3] addresses T1, PyVP1-WW150. Kind of test: SPR (Biacore X), peptide on CM5 chip, Dulbecco's PBS. In general terms: Surface plasmon resonance follows binding to a sensor surface in real time, without labels.
A further test concerns the target T2, PyVP1-WW150-D8C (mouse polyoma virus; Mus musculus …).
T2 construct: Position 8 is counted on the WW domain itself
The test is described as follows: surface plasmon resonance; strengthened by 500 mM ammonium sulfate.

In test [4] the target is T1, PyVP1-WW150. The test is described as follows: SPR (Biacore X), peptide on CM5 chip; summary of the three analyses of example 2.
The target in test [5] is B1. The test is described as follows: incubation of labelled peptide with PyVP1-3C-WW[N-14], capsid assembly, gel filtration.
The target in test [6] is B2. The test is described as follows: affinity column with peptide, crude extract, wash with 2 M NaCl, elution with 2% SDS, SDS gel.

Ends that are not written are not given here.

B1: the binding result with PyVP1-WW150 [1] is “binds”.
As usually defined, the Kd is the equilibrium constant for the complex coming apart. Low values mean a tighter complex, high ones a looser complex. In general, koff refers to the first-order rate constant of dissociation. What is called kon is a measure of how fast the partners come together. B2: the Kd was determined as 5 nM with PyVP1-WW150 [2] and 20 nM with PyVP1-WW150 [4]. For the same molecule, the koff with PyVP1-WW150 [3] worked out at 0.0018 s⁻¹. Moreover, the kon with PyVP1-WW150 [3] stood at 200000 M⁻¹ s⁻¹. For the same molecule, in the test with PyVP1-WW150-D8C, the binding result was “binds”.

B3: PyVP1-3C-WW[N-14] (other)
chain: MSGWTEHKSPDGRTYYYNTETKQSTWEKPDDGHMSTKACPRPAPVPKLLIKGGMEVLDLVTGPDSVTEIEAFLNPRMGQPPTPESLTEGGQYYGWSRGINLATSDTEDSPGNNTLPTWSMAKLQLPMLNEDLTCDTLQMWEAVSVKTEVVGSGSLLDVHGFNKPTDTVNTKGISTPVEGSQYHVFAVGGEPLDLQGLVTDARTKYKEEGVVTIKTITKKDMVNKDQVLNPISKAKLDKDGMYPVEIWHPDPAKNENTRYFGNYTGGTCTPPVLQFTNTLTTVLLDENGVGPLSKGEGLYLSSVDIMGWRVTRNYDVHHWRGLPRYFKITLRKRWVKNPYPMASLISSLFNNMLPQVQGQPMEGENTQVEEVRVYDGTEPVPGDPDMTRYVDRFGKTKTVFPPG
notes: The range 15-384 follows from 'N-terminus shortened by 14 amino acids'
For the molecule B3, the binding result in test [5] is listed as “binds”.

B4: [PyVP1-3C-WW1]-intein-CBD (other)
chain: MSGWTEHKSPDGRTYYYNTETKQSTWEKPDDGHMAPKRKSGVSKSETKSTKACPRPAPVPKLLIKGGMEVLDLVTGPDSVTEIEAFLNPRMGQPPTPESLTEGGQYYGWSRGINLATSDTEDSPGNNTLPTWSMAKLQLPMLNEDLTCDTLQMWEAVSVKTEVVGSGSLLDVHGFNKPTDTVNTKGISTPVEGSQYHVFAVGGEPLDLQGLVTDARTKYKEEGVVTIKTITKKDMVNKDQVLNPISKAKLDKDGMYPVEIWHPDPAKNENTRYFGNYTGGTCTPPVLQFTNTLTTVLLDENGVGPLSKGEGLYLSSVDIMGWRVTRNYDVHHWRGLPRYFKITLRKRWVKNPYPMASLISSLFNNMLPQVQGQPMEGENTQVEEVRVYDGTEPVPGDPDMTRYVDRFGKTKTVFPPG
notes: also called (PyVP1-3C-WW1)-intein-CBD fusion protein
B4: the binding result in test [6] was “binds”.
